# Source: the DeepSol protein solubility set
# Assay: soluble on expression in E. coli; label from the status in PepcDB or PDB records
row,Sequence,soluble on expression in E. coli
1,SGQRPSLPMLATDERSTDKESPNEDREFVPCSSLDVRRIYPKGPLLVLPEKIYLYSEPTVKELLPFDVVINVAEEANDLRMQVPAVEYHHYRWEHDSQIALDLPSLTSIIHAATTKREKILIHSQCGLSRSATLIIAYIMKYHNLSLRHSYDLLKSRADKINPSIGLIFQLMEWEVALNAKT,soluble
2,MGSDKIHHHHHHMPSRRGFLAGLLASSVTPTATWADVGAPAYLSAGKDALGLFVMAGLSAAGEVLFRHPLPDRGHAASAHPTRPEAVAFARRPGRFADVIDCRSGAQLARLEPPEGHHFYGHGVFSPEGEVLYTTENDYARGAGVIGVWNAGDYHRIGQFSSGGIGPHEMLLRRDAPGLVVANGGIETHPESGRAKLNIPFMRPNLSYLRLSGEIQHQMELPADLHKNSIRHIAVRSDGAVGFAMQWQGDLGADVPIVGLHQPGSAPRLMAEDDPRLRNLNGYGGSIAFSGDETAIAVTSPRGGVVQVMDCTSGALQAEHALSDVCGLAPLKDGFLVSTGTGIMAQIGTEVTTLTQAPLAWDNHLIALSSAASAPRQP,not soluble
3,MKDDPKVHLEAKELWDQFHKRGTEMVITKSGRRMFPPFKVRCSGLDKKAKYILLMDIIAADDCRYKFHNSRWMVAGKADPEMPKRMYIHPDSPATGEQWMSKVVTFHKLKLTNNISDKHGFTILNSMHKYQPRFHIVRANDILKLPYSTFRTYLFPETEFIAVTAYQNDKITQLKIDNNPFAKGFRDTGNGRR,soluble
4,MSLTSTAFAPRSLAPARITAVRVAPLLGESPQGGWSHEIKADDSVHALIALHTDAGISGYGSVFTNGALVQAAADVLTPLLLGENALEPDRIAEKLHQNTFWMGRGGSITHTISGIDIAMWDILGQATGLSVGRLLGGRHRDRVQPYCSLLMDMPERMEAVIAPHRAAGFRAFKIGWGPFGRRGDAGLDRAIIDAARTAVGTDAQLLVDAGASDAYWPNGLKWAMNTAAMLADYDVGWFEEALPPDAIEDFIALRRMSPVPIAGGEVLTRRQSFAPWLVRGAFDIVQPDVTKVGGISEQRRIAWMARDFGIRYVGHGWNTAFGLAADLQLAAAMPDCTLVEYIGGSAYVDRLTTRPFALDAEGMLAIPDLPGLGVSPDPALLARYTPDPEKFFSAEGHHHHHH,soluble
5,MGSDKIHHHHHHMLTSSWIKQLPLTAITQVTPVGGGDVNQAYRIDTATKPYFLLVQPGYPADFYAGEIAGLKAFDEAQILAPRVIANGQIEGDGFLLLSFLTSGNGSQRDLGRLVAHLHQHHEPNGRFGFDYPYAGTSVSFTNTWTDSWADLFIHQRLDKLAAHLLKKELWQADDEATFQQVRTIISKTLAHHHSDASLLHGDLWGGNYMFTADGQPALIDPAAVYGDRELDIGVTTVFGGFTQDFYTGYQEVYPLDAGYHFRLDFYRLYYLMVHLDKFGMGYAGSVAAVMNQILDHGLTE,not soluble
6,MARKNLIGISESPLAPEDGERPAVGRPIAGLAPAQRSTGLVGGITRSLSNITQKVERAEELERQLADGHAIVELDPELIDSSFIIDRLGVAPDVQAMLVQQIRDHGQQVPILVRPHPAESGRYQVAYGHRRLAALREIGIKVKAVIRNLNDEQLVISQGQENNARTDLSFIERALFATRLEDRGFSRDTIMSALGVDKAALSKMIAVVRRLPLDIIEAIGAAPGFGRRRWMELADLIDRDDRRPKALHFIETAAFKALESDQRFEKLFALLSLARKPSKAETWIAPDRSRPVRIRETDAETTLAFSKKAAPGFAEFVRQRLEALYLEYQRETGD,not soluble
7,MGSDKIHHHHHHMEFEFCVQDPTDPGTRYLYEAIIGAAADATTWRGMYAFATRGGVDQLIEDPVVHEFMRRGGEIDLIVGIDAVTNRQTLERMQALEERHEHFHPKVFWNTTGGLFHPKISHFGYADGRTKLILGSGNLTPGGLRHNFEGYSVISGGRREAIDLSSLDAFIARHEADIRPIDQAALDRAALNIVRPVAALPGPRAPQLRPPRAVSREAVLDRILLAQVPAAGGRWSQVHFNTQITEQYFRVTDVATQRVYLTSIDAAGLRGEEEVRPVVFSQANGNHKIEIAAAKGLDYPDSPPLLVFRERQVRCFDYMLLMPDSPGYGELLGLSQALPTIGRGLRRAITDMATLSQAWPACPLLTAGDALDQTI,not soluble
8,MRAVFRTDIGQIREHNEDSGGVFVNQSGQYLAVVADGMGGHRAGDVASSMAVAYLQERWEKESSLASPAEAEQWLKTQIAAANEQLFRHACSHPECQGMGTTVVAAVCANSFATVAHIGDSRCYVLNKSGIQQLTDDHSLVNELVKSGQLSKEAAEHHPRKNVLLRALGTEPAVKIDVKTVALDEGDMLLLCSDGLSNKVPEADMIHILTGAGTLEEKAEALIQLANGRGGEDNISLAVIDVSAEREGG,soluble
9,MEFIMKTRMFEEEGWIRKKCKVCGKPFWTLDPDRETCGDPPCDEYQFIGKPGIPRKYTLDEMREKFLRFFEKHEIYPHGRVKRYPVLPRWRDDVLLVGASIMDFQPWVISGEADPPANPLVISQPSIRFTDIDNVGITGRHFTIFEMMAHHAFNYPGKPIYWMDETVELAFEFFTKELKMKPEDITFKENPWAGGGNAGPAFEVLYRGLEVATLVFMQYKKAPENAPQDQVVVIKGEKYIPMETKVVDTGYGLERLVWMSQGTPTAYDAVLGYVVEPLKKMAGIEKIDEKILMENSRLAGMFDIEDLGDLRYLREQVAKRVGITVEELEKAIRPYELIYAIADHTKALTFMLADGVVPSNVKAGYLARLLIRKSIRHLRELGLEVPLSEIVALHIKELHKTFPEFKEMEDIILEMIELEEKKYAETLRRGSDLVRREIAKLKKKGIKEIPVEKLVTFYESHGLTPEIVKEIAEKEGVKVNIPDNFYSMVAKEAERTKEEKGEELVDFELLKDLPDTRRLYYEDPFMKEFDAKVLRVIKDWVILDATAFYPEGGGQPYDTGVLIVNGREVKVTNVQKVGKVIIHKVEDPGAFKEGMIVHGKIDWKRRIQHMRHHTGTHVLMGALVRVLGRHVWQAGSQLTTDWARLDISHYKRISEEELKEIEMLANRIVMEDRKVTWEWLPRTTAEQKYGFRLYQGGVVPGREIRVVKIEDWDVQACGGTHLPSTGLVGPIKILRTERIQDGVERIIFACGE,soluble
10,MGFKTVAKEEKQQLVANVFHSVAAKYDLMNDLLSFGIHRIWKRFTIDCSGVRKGQKVLDLAGGTGDFSAKFSRIVGETGQVVLADINSSMLEVGRDKLRNLGVVGNINYVQANAEHLPFADNTFDCVVISFGLRNVTDKDKALKSMYRVLKPGGRLLVLEFSKPIFDPISQLYNFYSFNILPKVGGIVVNDAESYRYLAESIRMHPKQDELKTMMEHAGFESVNYYNLSAGIVALHRGYKLEHHHHHH,not soluble
11,MYTAENAPGVAVLLSGDADVPGPLTGLPTHQDNLDTVIGRYSRLIVVGADADLGAVLTRLLRTDRLDVEVGYVPRRRSPATRAYRLPAGRRAARRARCGVARRVPLIRDETGSVIVGRAQWLPAEEQALIHGEAVVDDTVLFDGDVAGVCIEPTLTLPGLRAAVDGAGKWRRWIGGRAAQLGTTGAAVLRDGVAAPRPVRRSTFYRNVEGWLLVR,soluble
12,MIQQAQFNVQMAEEDRWLTQYPNMEMIVNNKGPKPIFPELNFNITGLEEKSRYVVLLSIQKFDNIRYGFKNGKWGPSKVRHATKKEQEIKYFLHPDGTKLGEELMKETIKFDTVRITNHKKFMDKDNVFFVETMHKYVPVLTVKNITNVESANHSMRMEVAQFFPVTVYNQESIGNWKSKFHKNATFENRLDGGNKRKNTNSREEPSSKRSKNETEIAVLDILQVASQSENYNESTNSGRLQNEISSSIHQFPSTSYQNQYPHAYPTVNTPPIYAQQFPAPFDEKQNQFYPKTDENLAPNCAQDASSLPNFAMNQKASFANQYPYHPYYHQYSQLDHGSPYQYMNNSINSDSSFQSSFSTENSYFDDNGNPIHYPYYPYK,not soluble
13,MTQLNFEENLLTKVAWYYYKDQLTQQEIASLLHISRNKVVRLLDKARSEGIVTFHVKGTGLHCLSIERDLMKKFHLKDAFIIPTPVNNYHASLGKAAAQYLETHLQQGDLLGIGWGETISKMLENIHFESSINLSIVTLTGGVNHYLPRKQNYLHYMQGELHIIPTPFLASTTEMAQSILSEPSVKDMLQVASLAHTAVVGIGGLSQDATIVKEEKLTLREMTYIRSQNGAGDILGQFYNTNGDLLELSHHNRLIGTPLSILRNMKHVVGVAGGTEKIDAICGALKGKFIHSLITDEETALSLLRKDGDC,not soluble
14,MLFLDSVAMKEKPEGREEYPFSVPAMRHLERLEFKTPITFFAGNNGSGKSTLLEGLAAGMTAYAIGNHGDVKGDLYLQHAETVAKAFYFARKKYPKIRMFLRAEDVLGYIRRQNENALDDFRWEREKALKKGEDFPEETPEIFRGIVRNNSLDRRSHGEGFLDIMHRRLHGAGLYFLDEPESPLSPQKQLELAAIIRQAADSGGQLIIATHSPVLLAIPEATIYYFDEDGITERLYDELENIAFLRRFLDRPSKYLDDLEHHHHHH,soluble
15,MAHHHHHHMLIPVRCYSCGKVVGHLYELYQELLNQDHTEAEALNALRLSRMCCRRMILSHIDLADDLLPYSVPVVGSMPLINPVQGPVPRRQ,not soluble
16,EVQLVESGGGLVQPGGSLRLSCAASGFTISSSSIHWVRQAPGKGLEWVAWVLPSVGFTDYADSVKGRFTISADTSKNTAYLQMNSLRAEDTAVYYCARRVCYNRLGVCAGGMDYWGQGTLVTVSSASTKGPSVFPLAPSSKSTSGGTAALGCLVKDYFPEPVTVSWNSGALTSGVHTFPAVLQSSGLYSLSSVVTVPSSSLGTQTYICNVNHKPSNTKVDKKVEPKSCDKTH,soluble
17,TQSLSNTFDSAIDDQLANVDVVMSGEKAPMPRGLIDELREDKDHVAAVAVQGATSAVLATEDRKAIQTGAASPTIGIFYGEGSAATTPEKITSGKEPHEANEVLAPESAAELGIKEGSTVVVVDEAGQREVKVVGTYSTEATAHPGVNLLMGEKAFLDRYQPEFIGTIFVKKADGSSEDVVQYLKDKYPDFKVDTGASLAEELTKTIKKALSFVNY,not soluble
18,MGSDKIHHHHHHLSPSVYPKSMADMETIVTSVYANMVAVPLYGKRVMAKGTFCVDHTVDMAWTGDANWNQLATNQVTSDNAYIGTLWIGYYKMISCANTVLEQLERIDKEKFTDADLARLSQMKGEALFWRGWAHQQLVAFFGEGYPCNGDGDKKGVPVRLQVASTPDMLNIERSTVAEVYDQILKDYEAAKLLLPAVWEERADYPRPTSVAVASYIGQANLYMGNYDAAKKALKEVIDSSGKELLPFNEYAKMFNEDQEKFNRESILEINFRNGDTSGYFWYGEGSQYGLIAALCFQNASGDVEAAGWGNIFFHDANIKRFNGDPRLDIAALRPGTPVIMNGQQTQVLKYKDTEADIQGWSMRKYNPLKSTVNELNLGVGINMYLMRLADVYLMYAEACQATGDEVNARNYMNLVRRRAYNGDSSHDITASGEALRDAIREERFMEFCGEGVQHWQDVCRWKVLDEEISRWYGKTRVGNPHYDAKDLYFPIPKVEMENNPNMTQSIGYENE,not soluble
19,MAVKMKYWTDEVGGERGSLKVELKPFGYRIIPLTQWKTLIAMDDVEVKKGEPEIIEVRPFTIPGGTMVGPLHIMRHALGTVLDVVECGIPTRVEDEKCIQRVVFLPVDDGVVREGDIVGVLKVFFIKTGLISRLFNLKPTKVELREEIVEANITWRDDGNIYREKISTKVFGYTRTHVGVWEPLVADEDVGVRAGDVLRVKIRNVELPPNTVVVPLSISRNPYGVVVDVVQLGKPRRVEEPKNIEQAVFLAVDDGEIKRGDLLGVINVYYVGLKKLEPLIATKEPQDFTLVYRKEEKIIRKKVHLPPFGYHRSPVARWEVVVAAEDKELTKNKPVRVKIKKIKIPANTIVYPMEIMRHSDGVLIDLVSDLPWRVEEGGKVDEAIFLPLFDGKIEKDDLLGVINLYQVELSPVEKIREMYNRFVKLSEEELMKYVEGLQ,soluble
